Measured values from patent US20220195041A1 (IMMUNORIZON, published 2022).

How the values were obtained:
[1] = target: T1, hEGFR-Fc (EGFR extracellular fusion antigen, Cat #344-ER-050, Bio-techne) (human, UniProt P00533 25-645); assay: ELISA, coated hEGFR-Fc (FIG. 18A)
T1 construct: extracellular domain; Bought reagent; also called human EGFR antigen; extracellular domain of hEGFR; not shown: Fc part of the bought fusion
Procedure: (§1) The EGFR antigens hEGFR-Fc (Cat #344-ER-050, Bio-techne) and rhesus EGFR-Fc (Cat #EGR-05252, Acro Biosystems)) were diluted to a 0.05 ug/ml concentration in PBS. Human CD3epsilon (hCD3epsilon-His (Cat #10977-H08S, Sino Biological) and cynomolgus CD3epsilon (Cat #CDE-05226, Acro Biosystems)) were diluted to a 0.01 ug/ml concentration in PBS. ELISA plate (Cat #9018, Corning) wells were filled with 100 ul of antigen suspension. Plates were incubated overnight at 4° C. Wells were blocked with 250 ul 1% BSA in PBST for 1 hr at 37° C. and then washed four times with PBST. All washes were done using Biotek (Elx 405). All construct antibodies were diluted to 15 ug/ml and prepared with 3-fold serial dilutions (12 points, including 0 ug/ml). 100 ul/well of diluted antibody construct solution was added to plate and incubated for 1 hr at 37° C. Plates were washed four times with PBST, then 100 ul/well of anti-human kappa light chain-HRP antibody (1:10000) was added and incubated for 0.5 hr at 37° C. Wells were washed 4 times with PBST, then 100 ul/well of TMB substrate was added and plates were incubated at RT for 5 min. 100 ul/well of 1.0 N HCl was added to terminate the reaction. Plates were read using ELISA plate reader at 450 nm wavelength (SpectraMax M5e). Data Analysis was performed using Graphpad Prism 5 software by using nonlinear regression (curve fit): log (agonist) vs. response, agonist is antibody concentration (nM) and response is OD value.

[2] = target: T2, rhesus EGFR-Fc (rhesus EGFR extracellular fusion antigen, Cat #EGR-05252, Acro Biosystems) (rhesus, UniProt P55245 25-645); assay: ELISA, coated rhesus EGFR-Fc (FIG. 18B)
T2 construct: extracellular domain; Bought reagent; also called rhesus EGFR antigen; extracellular domain of rhesus EGFR; not shown: Fc part of the bought fusion
Procedure: as §1

[3] = target: T3, cyno CD3epsilon-His (cynomolgus CD3epsilon extracellular fusion antigen, Cat #CDE-05226, Acro Biosystems) (cynomolgus, UniProt Q95LI5 22-117); assay: ELISA, coated cyno CD3epsilon-His (FIG. 19B)
T3 construct: extracellular domain; Bought reagent; also called cyno CD3e antigen; not shown: His tag
T3 sequence (looked up): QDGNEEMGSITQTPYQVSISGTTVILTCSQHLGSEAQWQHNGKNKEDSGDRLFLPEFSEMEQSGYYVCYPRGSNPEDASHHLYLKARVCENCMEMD
Procedure: as §1

[4] = target: T4, human CD3epsilon-His (human CD3epsilon extracellular fusion antigen, Cat #10977-H08S, Sino Biological) (human, UniProt P07766 22-126); assay: ELISA, coated human CD3epsilon-His (FIG. 19A)
T4 construct: Bought reagent; also called hCD3epsilon-His; hCD3epsilon; not shown: His tag
Procedure: as §1

[5] = target: T5, human CD3epsilon on Jurkat cells (human, UniProt P07766 22-207); assay: FACS on Jurkat cells (FIG. 25)
T5 construct: Endogenous CD3epsilon on Jurkat T cells, within the CD3/TCR complex; also called Jurkat Cells (Human CD3e); human-CD3e expressing Jurkat cells

Measured: binding result

B1: Construct 1: Tri-Specific variable light chain-variable heavy chain (VLVH), anti-CD3epsilon Fab with two anti-EGFR scFv (VL-VH), no regulatory domains (bispecific antibody)
heavy: GGSGGSEVQLVESGGGLVQPGGSLRLSCAASGFTFNTYAMNWVRQAPGKGLEWVARIRSKYNNYATYYADSVKDRFTISRDDSKNTLYLQMNSLRAEDTAVYYCVRHGNFGNSYVSWFAYWGQGTMVTVSSASTKGPSVFPLAPSSKSTSGGTAALGCLVKDYFPEPVTVSWNSGALTSGVHTFPAVLQSSGLYSLSSVVTVPSSSLGTQTYICNVNHKPSNTKVDKRVEPKSCPPCGGGGSDIQMTQSPSSLSASVGDRVTITCQASQDISNYLNWYQQKPGKAPKLLIYDASNLETGVPSRFSGSGSGTDFTFTISSLQPEDIATYFCQHFDHLPLAFGGGTKVEIKGGGGSGGGGSGGGGSQVQLQESGPGLVKPSETLSLTCTVSGGSVSSGDYYWTWIRQSPGKGLEWIGHIYYSGNTNYNPSLKSRLTISIDTSKTQFSLKLSSVTAADTAIYYCVRDRVTGAFDIWGQGTMVTVSS
light: GGSGGSQAVVTQEPSLTVSPGGTVTLTCRSSTGAVTTSNYANWVQQKPGQAPRGLIGGTNKRAPGTPARFSGSLLGGKAALTLSGVQPEDEAEYYCALWYSNLWVFGGGTKLTVLGQPKAAPSVTLFPPSSEELQANKATLVCLISDFYPGAVTVAWKADSSPVKAGVETTTPSKQSNNKYAASSYLSLTPEQWKSHRSYSCQVTHEGSTVEKTVAPTECPPCSGGGSDIQMTQSPSSLSASVGDRVTITCQASQDISNYLNWYQQKPGKAPKLLIYDASNLETGVPSRFSGSGSGTDFTFTISSLQPEDIATYFCQHFDHLPLAFGGGTKVEIKGGGGSGGGGSGGGGSQVQLQESGPGLVKPSETLSLTCTVSGGSVSSGDYYWTWIRQSPGKGLEWIGHIYYSGNTNYNPSLKSRLTISIDTSKTQFSLKLSSVTAADTAIYYCVRDRVTGAFDIWGQGTMVTVSS
notes: Heterodimer of one HC and one LC polypeptide (about 100 kDa), no Fc; also called TriBody (VLVH); Tribody EGFR (VL-VH)
not listed: [5]
binds: all other assays above

B2: Construct 4: Precursor Tri-Specific Construct Variable Heavy Variable Light (VHVL), anti-CD3epsilon Fab, two anti-EGFR scFv, HSA and CAP regulatory domains … (bispecific antibody)
heavy: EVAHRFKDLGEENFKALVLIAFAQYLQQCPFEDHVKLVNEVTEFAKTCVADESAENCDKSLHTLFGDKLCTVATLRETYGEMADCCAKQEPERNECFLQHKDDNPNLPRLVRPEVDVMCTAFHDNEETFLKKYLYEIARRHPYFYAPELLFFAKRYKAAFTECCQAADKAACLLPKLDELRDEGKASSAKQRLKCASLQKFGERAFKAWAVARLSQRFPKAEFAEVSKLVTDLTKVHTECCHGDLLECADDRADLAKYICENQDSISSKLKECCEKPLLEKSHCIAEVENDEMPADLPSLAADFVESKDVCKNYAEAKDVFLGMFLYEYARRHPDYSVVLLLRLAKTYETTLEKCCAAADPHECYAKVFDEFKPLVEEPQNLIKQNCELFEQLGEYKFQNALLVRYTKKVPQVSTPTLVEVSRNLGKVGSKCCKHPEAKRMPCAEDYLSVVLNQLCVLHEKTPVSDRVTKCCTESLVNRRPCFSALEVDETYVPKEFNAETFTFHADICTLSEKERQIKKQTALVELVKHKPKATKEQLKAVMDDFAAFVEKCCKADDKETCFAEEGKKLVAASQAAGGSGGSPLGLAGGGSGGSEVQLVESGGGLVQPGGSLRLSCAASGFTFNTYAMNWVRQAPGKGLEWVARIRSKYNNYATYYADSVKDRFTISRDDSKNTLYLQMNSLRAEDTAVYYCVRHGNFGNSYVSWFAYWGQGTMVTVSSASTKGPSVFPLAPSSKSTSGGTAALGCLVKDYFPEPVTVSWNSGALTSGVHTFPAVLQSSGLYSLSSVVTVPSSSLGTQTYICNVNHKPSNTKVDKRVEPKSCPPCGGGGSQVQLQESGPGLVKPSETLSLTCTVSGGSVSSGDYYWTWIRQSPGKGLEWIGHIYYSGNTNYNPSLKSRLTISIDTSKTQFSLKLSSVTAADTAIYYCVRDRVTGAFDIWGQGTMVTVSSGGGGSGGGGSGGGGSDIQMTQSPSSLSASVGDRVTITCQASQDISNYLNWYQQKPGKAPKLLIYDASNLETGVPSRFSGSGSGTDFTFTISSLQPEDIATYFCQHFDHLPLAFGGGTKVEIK
light: QDGNEEMGGITQTPYKVSISGTTVILTGGSGGSPLGLAGGGSGGSQAVVTQEPSLTVSPGGTVTLTCRSSTGAVTTSNYANWVQQKPGQAPRGLIGGTNKRAPGTPARFSGSLLGGKAALTLSGVQPEDEAEYYCALWYSNLWVFGGGTKLTVLGQPKAAPSVTLFPPSSEELQANKATLVCLISDFYPGAVTVAWKADSSPVKAGVETTTPSKQSNNKYAASSYLSLTPEQWKSHRSYSCQVTHEGSTVEKTVAPTECPPCSGGGSQVQLQESGPGLVKPSETLSLTCTVSGGSVSSGDYYWTWIRQSPGKGLEWIGHIYYSGNTNYNPSLKSRLTISIDTSKTQFSLKLSSVTAADTAIYYCVRDRVTGAFDIWGQGTMVTVSSGGGGSGGGGSGGGGSDIQMTQSPSSLSASVGDRVTITCQASQDISNYLNWYQQKPGKAPKLLIYDASNLETGVPSRFSGSGSGTDFTFTISSLQPEDIATYFCQHFDHLPLAFGGGTKVEIK
notes: Uncleaved precursor (no MMP9 treatment); also called ProTriBody-C (VHVL); Pro-Tribody-C (VHVL)
binds: [1] | [2]

B3: Construct 6: Precursor Tri-Specific Non-Cleavable (NC) Variable Heavy Variable Light (VHVL), anti-CD3epsilon Fab, two anti-EGFR scFv, HSA and CAP regulatory … (bispecific antibody)
heavy: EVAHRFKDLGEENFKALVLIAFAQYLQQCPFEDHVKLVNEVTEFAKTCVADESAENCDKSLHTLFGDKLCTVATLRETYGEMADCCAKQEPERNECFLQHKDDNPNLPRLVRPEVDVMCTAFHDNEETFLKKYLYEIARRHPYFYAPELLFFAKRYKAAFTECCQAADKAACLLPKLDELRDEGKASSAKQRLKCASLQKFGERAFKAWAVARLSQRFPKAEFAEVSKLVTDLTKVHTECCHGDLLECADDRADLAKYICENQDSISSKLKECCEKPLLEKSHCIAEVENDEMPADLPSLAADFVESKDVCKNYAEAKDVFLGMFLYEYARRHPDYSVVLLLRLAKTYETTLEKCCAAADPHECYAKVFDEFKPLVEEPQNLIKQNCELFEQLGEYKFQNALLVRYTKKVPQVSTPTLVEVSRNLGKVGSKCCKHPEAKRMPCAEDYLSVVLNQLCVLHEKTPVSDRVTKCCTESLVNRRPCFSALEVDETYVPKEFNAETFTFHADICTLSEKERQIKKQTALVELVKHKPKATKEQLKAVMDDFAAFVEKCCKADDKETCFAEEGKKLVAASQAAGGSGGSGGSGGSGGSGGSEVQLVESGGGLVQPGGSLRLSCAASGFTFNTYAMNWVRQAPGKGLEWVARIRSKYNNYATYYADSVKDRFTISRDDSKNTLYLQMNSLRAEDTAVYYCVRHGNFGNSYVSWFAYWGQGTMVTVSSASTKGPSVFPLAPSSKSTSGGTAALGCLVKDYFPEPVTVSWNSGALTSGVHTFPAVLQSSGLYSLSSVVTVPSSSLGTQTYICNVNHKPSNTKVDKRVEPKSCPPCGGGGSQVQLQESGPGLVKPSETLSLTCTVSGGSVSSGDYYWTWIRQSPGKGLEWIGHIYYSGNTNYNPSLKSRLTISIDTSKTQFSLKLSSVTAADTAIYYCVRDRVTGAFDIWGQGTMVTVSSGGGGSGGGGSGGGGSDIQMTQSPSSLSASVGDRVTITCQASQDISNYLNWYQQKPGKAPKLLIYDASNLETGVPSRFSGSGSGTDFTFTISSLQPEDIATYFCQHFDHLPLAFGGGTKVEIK
light: QDGNEEMGGITQTPYKVSISGTTVILTGGSGGSGGSGGSGGSGGSQAVVTQEPSLTVSPGGTVTLTCRSSTGAVTTSNYANWVQQKPGQAPRGLIGGTNKRAPGTPARFSGSLLGGKAALTLSGVQPEDEAEYYCALWYSNLWVFGGGTKLTVLGQPKAAPSVTLFPPSSEELQANKATLVCLISDFYPGAVTVAWKADSSPVKAGVETTTPSKQSNNKYAASSYLSLTPEQWKSHRSYSCQVTHEGSTVEKTVAPTECPPCSGGGSQVQLQESGPGLVKPSETLSLTCTVSGGSVSSGDYYWTWIRQSPGKGLEWIGHIYYSGNTNYNPSLKSRLTISIDTSKTQFSLKLSSVTAADTAIYYCVRDRVTGAFDIWGQGTMVTVSSGGGGSGGGGSGGGGSDIQMTQSPSSLSASVGDRVTITCQASQDISNYLNWYQQKPGKAPKLLIYDASNLETGVPSRFSGSGSGTDFTFTISSLQPEDIATYFCQHFDHLPLAFGGGTKVEIK
notes: Not cleaved by MMP9, so the same molecule stands in the assays with and without MMP9; also called ProTriBody-NC (VHVL); Pro-Tribody-NC (VHVL)
binds: [1] | [2]

B4: Construct 3: Precursor Tri-Specific Variable Light-Variable Heavy (VLVH), anti-CD3epsilon Fab, two anti-EGFR scFv, HSA and CAP regulatory domains linked by … (bispecific antibody)
heavy: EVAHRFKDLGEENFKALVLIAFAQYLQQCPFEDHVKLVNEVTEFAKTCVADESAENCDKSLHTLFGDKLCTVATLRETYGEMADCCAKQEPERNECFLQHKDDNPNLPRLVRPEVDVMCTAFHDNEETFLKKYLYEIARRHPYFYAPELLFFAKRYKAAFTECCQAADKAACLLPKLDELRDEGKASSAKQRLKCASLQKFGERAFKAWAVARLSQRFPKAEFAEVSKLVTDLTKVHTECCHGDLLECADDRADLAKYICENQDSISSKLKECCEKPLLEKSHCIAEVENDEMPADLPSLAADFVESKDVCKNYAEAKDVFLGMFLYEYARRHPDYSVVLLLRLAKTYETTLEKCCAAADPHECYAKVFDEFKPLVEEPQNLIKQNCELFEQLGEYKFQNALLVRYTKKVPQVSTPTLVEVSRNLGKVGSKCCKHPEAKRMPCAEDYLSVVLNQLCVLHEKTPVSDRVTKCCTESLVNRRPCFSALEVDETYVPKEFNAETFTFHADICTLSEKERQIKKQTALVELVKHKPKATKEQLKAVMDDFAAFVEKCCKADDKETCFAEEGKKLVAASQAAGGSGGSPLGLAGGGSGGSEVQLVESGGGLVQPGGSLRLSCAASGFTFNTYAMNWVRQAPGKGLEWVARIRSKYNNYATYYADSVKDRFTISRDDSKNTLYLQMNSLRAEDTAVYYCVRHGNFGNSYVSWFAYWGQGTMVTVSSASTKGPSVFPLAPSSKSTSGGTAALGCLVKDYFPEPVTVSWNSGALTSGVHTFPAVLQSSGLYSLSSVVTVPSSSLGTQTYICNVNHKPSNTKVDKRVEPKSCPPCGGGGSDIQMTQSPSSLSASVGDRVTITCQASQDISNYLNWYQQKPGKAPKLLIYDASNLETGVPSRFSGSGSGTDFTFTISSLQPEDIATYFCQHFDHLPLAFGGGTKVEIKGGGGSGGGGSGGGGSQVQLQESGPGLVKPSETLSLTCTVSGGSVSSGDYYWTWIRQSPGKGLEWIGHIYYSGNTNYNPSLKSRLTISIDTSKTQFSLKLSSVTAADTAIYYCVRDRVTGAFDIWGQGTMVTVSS
light: QDGNEEMGGITQTPYKVSISGTTVILTGGSGGSPLGLAGGGSGGSQAVVTQEPSLTVSPGGTVTLTCRSSTGAVTTSNYANWVQQKPGQAPRGLIGGTNKRAPGTPARFSGSLLGGKAALTLSGVQPEDEAEYYCALWYSNLWVFGGGTKLTVLGQPKAAPSVTLFPPSSEELQANKATLVCLISDFYPGAVTVAWKADSSPVKAGVETTTPSKQSNNKYAASSYLSLTPEQWKSHRSYSCQVTHEGSTVEKTVAPTECPPCSGGGSDIQMTQSPSSLSASVGDRVTITCQASQDISNYLNWYQQKPGKAPKLLIYDASNLETGVPSRFSGSGSGTDFTFTISSLQPEDIATYFCQHFDHLPLAFGGGTKVEIKGGGGSGGGGSGGGGSQVQLQESGPGLVKPSETLSLTCTVSGGSVSSGDYYWTWIRQSPGKGLEWIGHIYYSGNTNYNPSLKSRLTISIDTSKTQFSLKLSSVTAADTAIYYCVRDRVTGAFDIWGQGTMVTVSS
notes: Uncleaved precursor, about 170 kDa; also called ProTriBody-C EGFR (VL-VH); Precursor Tri-body construct (VL-VH)
not listed: [5]
binds: all other assays above

B5: Construct 5: Precursor Tri-Specific Non-Cleavable (NC) Variable Light Variable Heavy (VLVH), anti-CD3epsilon Fab, two anti-EGFR scFv, HSA and CAP regulatory … (bispecific antibody)
heavy: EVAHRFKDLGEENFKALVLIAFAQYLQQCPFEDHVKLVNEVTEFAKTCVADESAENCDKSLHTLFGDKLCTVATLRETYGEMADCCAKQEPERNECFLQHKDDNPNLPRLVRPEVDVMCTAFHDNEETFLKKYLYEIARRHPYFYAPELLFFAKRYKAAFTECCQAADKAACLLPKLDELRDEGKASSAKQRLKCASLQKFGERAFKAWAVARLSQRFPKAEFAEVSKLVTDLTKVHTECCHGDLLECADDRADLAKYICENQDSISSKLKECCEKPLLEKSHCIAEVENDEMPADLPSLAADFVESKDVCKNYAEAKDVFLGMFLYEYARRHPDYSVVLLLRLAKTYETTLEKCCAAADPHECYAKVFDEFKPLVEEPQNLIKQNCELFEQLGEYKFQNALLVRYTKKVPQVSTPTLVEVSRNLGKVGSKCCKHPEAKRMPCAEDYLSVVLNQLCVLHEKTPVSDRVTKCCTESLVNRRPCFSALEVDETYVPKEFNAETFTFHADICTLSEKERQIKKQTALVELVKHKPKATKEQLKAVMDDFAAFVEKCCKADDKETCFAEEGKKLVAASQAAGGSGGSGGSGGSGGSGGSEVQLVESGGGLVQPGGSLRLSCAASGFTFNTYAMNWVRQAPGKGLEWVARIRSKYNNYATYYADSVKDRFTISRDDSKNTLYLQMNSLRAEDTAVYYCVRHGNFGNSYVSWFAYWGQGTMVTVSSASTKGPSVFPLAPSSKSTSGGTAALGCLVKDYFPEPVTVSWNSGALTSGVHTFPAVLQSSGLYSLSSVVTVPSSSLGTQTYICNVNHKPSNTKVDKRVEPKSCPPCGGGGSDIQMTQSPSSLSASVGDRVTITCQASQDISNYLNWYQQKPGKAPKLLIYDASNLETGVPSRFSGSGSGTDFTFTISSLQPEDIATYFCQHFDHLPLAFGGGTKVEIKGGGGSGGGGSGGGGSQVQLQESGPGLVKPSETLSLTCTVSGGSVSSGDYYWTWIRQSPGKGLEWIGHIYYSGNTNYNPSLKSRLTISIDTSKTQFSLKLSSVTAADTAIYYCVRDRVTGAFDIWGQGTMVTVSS
light: QDGNEEMGGITQTPYKVSISGTTVILTGGSGGSGGSGGSGGSGGSQAVVTQEPSLTVSPGGTVTLTCRSSTGAVTTSNYANWVQQKPGQAPRGLIGGTNKRAPGTPARFSGSLLGGKAALTLSGVQPEDEAEYYCALWYSNLWVFGGGTKLTVLGQPKAAPSVTLFPPSSEELQANKATLVCLISDFYPGAVTVAWKADSSPVKAGVETTTPSKQSNNKYAASSYLSLTPEQWKSHRSYSCQVTHEGSTVEKTVAPTECPPCSGGGSDIQMTQSPSSLSASVGDRVTITCQASQDISNYLNWYQQKPGKAPKLLIYDASNLETGVPSRFSGSGSGTDFTFTISSLQPEDIATYFCQHFDHLPLAFGGGTKVEIKGGGGSGGGGSGGGGSQVQLQESGPGLVKPSETLSLTCTVSGGSVSSGDYYWTWIRQSPGKGLEWIGHIYYSGNTNYNPSLKSRLTISIDTSKTQFSLKLSSVTAADTAIYYCVRDRVTGAFDIWGQGTMVTVSS
notes: also called ProTriBody-NC EGFR (VL-VH); Non-Cleavable Precursor Tri-body construct (VL-VH)
not listed: [5]
binds: all other assays above

B6: Construct 2: Tri-Specific variable heavy chain-variable light chain (VHVL), anti-CD3epsilon Fab with two anti-EGFR scFv (VH-VL), no regulatory domains (bispecific antibody)
heavy: GGSGGSEVQLVESGGGLVQPGGSLRLSCAASGFTFNTYAMNWVRQAPGKGLEWVARIRSKYNNYATYYADSVKDRFTISRDDSKNTLYLQMNSLRAEDTAVYYCVRHGNFGNSYVSWFAYWGQGTMVTVSSASTKGPSVFPLAPSSKSTSGGTAALGCLVKDYFPEPVTVSWNSGALTSGVHTFPAVLQSSGLYSLSSVVTVPSSSLGTQTYICNVNHKPSNTKVDKRVEPKSCPPCGGGGSQVQLQESGPGLVKPSETLSLTCTVSGGSVSSGDYYWTWIRQSPGKGLEWIGHIYYSGNTNYNPSLKSRLTISIDTSKTQFSLKLSSVTAADTAIYYCVRDRVTGAFDIWGQGTMVTVSSGGGGSGGGGSGGGGSDIQMTQSPSSLSASVGDRVTITCQASQDISNYLNWYQQKPGKAPKLLIYDASNLETGVPSRFSGSGSGTDFTFTISSLQPEDIATYFCQHFDHLPLAFGGGTKVEIK
light: GGSGGSQAVVTQEPSLTVSPGGTVTLTCRSSTGAVTTSNYANWVQQKPGQAPRGLIGGTNKRAPGTPARFSGSLLGGKAALTLSGVQPEDEAEYYCALWYSNLWVFGGGTKLTVLGQPKAAPSVTLFPPSSEELQANKATLVCLISDFYPGAVTVAWKADSSPVKAGVETTTPSKQSNNKYAASSYLSLTPEQWKSHRSYSCQVTHEGSTVEKTVAPTECPPCSGGGSQVQLQESGPGLVKPSETLSLTCTVSGGSVSSGDYYWTWIRQSPGKGLEWIGHIYYSGNTNYNPSLKSRLTISIDTSKTQFSLKLSSVTAADTAIYYCVRDRVTGAFDIWGQGTMVTVSSGGGGSGGGGSGGGGSDIQMTQSPSSLSASVGDRVTITCQASQDISNYLNWYQQKPGKAPKLLIYDASNLETGVPSRFSGSGSGTDFTFTISSLQPEDIATYFCQHFDHLPLAFGGGTKVEIK
notes: Heterodimer of one HC and one LC polypeptide, no Fc; also called TriBody (VHVL); Tribody (VHVL)
binds: all assays above
